Laboratory results reported in US20250019437A1.

T1: human TREM2 (triggering receptor expressed on myeloid cells 2) (human) (UniProt Q9NZC2)
T1 sequence (looked up): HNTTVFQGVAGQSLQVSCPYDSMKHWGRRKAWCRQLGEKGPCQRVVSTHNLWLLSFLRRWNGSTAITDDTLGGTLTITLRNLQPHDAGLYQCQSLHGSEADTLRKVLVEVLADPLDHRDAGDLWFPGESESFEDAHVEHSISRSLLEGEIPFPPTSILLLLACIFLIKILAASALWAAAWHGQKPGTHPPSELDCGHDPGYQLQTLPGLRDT


Experiments:
[1] = biological target: T1, human TREM2 (triggering receptor expressed on myeloid cells 2) (human); experiment: 1st screen, 10 nM Ab
[2] = biological target: T1, human TREM2 (triggering receptor expressed on myeloid cells 2) (human); experiment: 2nd screen, 2 nM Ab
[3] = biological target: T1, human TREM2 (triggering receptor expressed on myeloid cells 2) (human); experiment: 2nd screen, 10 nM Ab

Binding Signal (fold over 6E7 parental antibody) [1] [fold] | Binding Signal (fold over 6E7 parental antibody) [2] [fold] | Binding Signal (fold over 6E7 parental antibody) [3] [fold] | Binder
3.57 | 2.83 | 3.47 | 6E7 antibody affinity modulation variant V26 (antibody, V domains shown) VH: EVQLVQSGAEVKKPGESLKISCKGSGYSFTSYWIGWVRQMPGKGLEWMGTIYPGDSDTRYSPSFQGQVTISADKSISTAYLQWSSLKASDTAMYFCARQRTMYYDSSDYFDAWGQGTLVTVSS VL: DIQMTQSPSSVSASVGDRVTITCRASQGISSWLAWYQQKPGKAPKLLIYAASSLQRGVPSRFSGSGSGTDFTLTISSLQPEDFATYFCQQADSYPRTFGQGTKLEIK
1.53 | 0.84 | 1.67 | 6E7 antibody affinity modulation variant V29 (antibody, V domains shown) VH: EVQLVQSGAEVKKPGESLKISCKGSGYSFKSYWIAWVRQMPGKGLEWMGIIYPGDSDTRYSPSFQGQVTISADKSISTAYLQWSSLKASDTAMYFCARQRTFYYDSSDYFDYWGQGTLVTVSS VL: DIQMTQSPSSVSASVGDRVTITCRASQGISSWLAWYQQKPGKAPKLLIYAASSLQNGVPSRFSGSGSGTDFTLTISSLQPEDFATYFCQQADSFPRTFGQGTKLEIK
3.08 | 2.63 | 3.61 | 6E7 antibody affinity modulation variant V28 (antibody, V domains shown) VH: EVQLVQSGAEVKKPGESLKISCKGSGYSFQSYWIAWVRQMPGKGLEWMGTIYPGDSDTRYSPSFQGQVTISADKSISTAYLQWSSLKASDTAMYFCARQRTFFYDSSDYFDYWGQGTLVTVSS VL: DIQMTQSPSSVSASVGDRVTITCRASQGISSWLAWYQQKPGKAPKLLIYAASSLQSGVPSRFSGSGSGTDFTLTISSLQPEDFATYFCQQADSLPRTFGQGTKLEIK
5.5 | 5.67 | 5.69 | 6E7 antibody affinity modulation variant V27 (antibody, V domains shown) VH: EVQLVQSGAEVKKPGESLKISCKGSGYSFTSYWIAWVRQMPGKGLEWMGIIYPGDSDTRYAPSFQGQVTISADKSISTAYLQWSSLKASDTAMYFCVRSRTFYYDSSDYFDYWGQGTLVTVSS VL: DIQMTQSPSSVSASVGDRVTITCRASQGISSWLAWYQQKPGKAPKLLIYAASSLQRGVPSRFSGSGSGTDFTLTISSLQPEDFATYFCQQADSFPRTFGQGTKLEIK
